# Experimental data taken from patent publication US6570069B1, “Nucleic acids encoding plant inhibitors of apoptosis and transgenic cells and plants expressing them” (priority 2000, dated 2003).
# Test system: apoptosis induced by AcMNPV p35 mutant virus in Sf-21 cells
# Experiment: Rescue of AcMNPV p35-deleted virus in Sf-21 cells (occlusion body formation)
# Assay type: cell-based, Spodoptera frugiperda
# Conditions: plasmid co-transfected with AcMNPV p35 mutant viral DNA into Sf-21 cells; observed 72 hrs post-transfection
# Method: Insect Sf-21 cells were maintained at 27° C. in Excell 401 media (JHR Bioscience) supplemented with 2.5% fetal bovine serum. vP35del, containing a deletion in the p35 gene, was propagated in TN-368 cells (Clem, R. J., et al., (1991) Science 254, 1388-1390). Plasmids encoding full-length or deletion mutants of SfIAP (1 μg) were co-transfected with 1 μg vP35del viral DNA into Sf-21 cells using Lipofectin from Gibco. Occlusion body formation was observed under light microscopy 3 days post-transfection.
# SfIAP was tested to see if it also complements. p35-deficiency, preventing apoptosis by this mutant virus, thereby allowing its replication in insect cells. Plasmids containing full-length SfIAP or fragments of SfIAP comprising the two BIRs or the RING domain were co-transfected with AcMNPV p35 mutant viral DNA into Sf-21 cells. Cells were observed 72 hrs post-transfection. […] Thus, analogous to CpIAP and OpIAP, BIR and RING domains of SfIAP are required in combination for inhibition of apoptosis induced by AcMNPV p35 mutant virus.
molecule,measurement,value
"SfIAP: cellular IAP cloned from Spodoptera frugiperda, protein of 377 amino acids (SEQ ID NO:3); GST-fusion when recombinant (protein, listed as Spodoptera frugiperda, GST fusion when recombinant; fall armyworm inhibitor of apoptosis protein (SfIAP)) MWSCSLPCWNTKKSGLQMDITKVASNGSSSTLTLFKSGSLEAKIRPLAPLMLPTPSYDSNAGSPSLSPSTPCSSSSFSIDKTDNHDTFGFSADTVDMRKEDERMKTFEKWPVSFLSGEQLARNGFYYLGRRDEARCAFCKVEIMRWVEGDDPAKDHQRWAPQCPFVRKLNGTAAADTGSSGQDECGARAAPSGTSPPRMAGPVHPRYASEAARLRSFKDWPRCMRQKPEELAEAGFFYTGQGDKTKCFYCDGGLKDWENHDVPWEQHARWFDRCAYVQLVKGREYVQKVISEACEVSASEAERDVAPARTAEPSPPAEAPENSVDDSKLCKICYAEERNVCFVPCGHVVACAKCALAADKCPMCRRTFQNAVRLYFS","complementation of p35 deficiency (rescue of mutant virus replication, occlusion body formation)",complemented p35 deficiency
